Four molecules from publication PMC6707876 (Nature microbiology, 2019) can be followed below.

What is called Kd is a measure of binding affinity in units of concentration. By IC50 is commonly meant the concentration at which inhibition is half-maximal. Low values mean greater potency, high ones weaker potency.

The target of experiment [1] is T1, biotinylated BirA-tagged Sal-1 DBP-II (Plasmodium vivax, UniProt P22290, biotin (added with BirA ligase on the BirA tag)). Kind of experiment: BLI. On the technique in general: Biolayer interferometry detects binding as a change in optical thickness at a sensor tip.
T1 sequence (P22290 211-525): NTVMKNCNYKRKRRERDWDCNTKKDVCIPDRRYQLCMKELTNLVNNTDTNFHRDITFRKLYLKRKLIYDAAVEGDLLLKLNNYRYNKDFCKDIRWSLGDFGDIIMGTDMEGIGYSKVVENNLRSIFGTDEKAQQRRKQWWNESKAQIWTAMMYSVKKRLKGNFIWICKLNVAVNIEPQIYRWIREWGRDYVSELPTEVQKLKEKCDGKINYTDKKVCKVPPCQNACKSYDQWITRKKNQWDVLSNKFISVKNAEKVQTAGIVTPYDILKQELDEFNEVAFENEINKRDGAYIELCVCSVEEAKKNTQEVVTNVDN
In experiment [2] the target is T1, biotinylated BirA-tagged Sal-1 DBP-II. Kind of experiment: flow cytometry on cells. In general terms: Flow cytometry measures light scatter and fluorescence of single cells or particles in a stream.

B1: 053054 single-chain variable fragment (scFv, V domains shown)
VH: QVQLQESGPGLVKPSQTLSLTCNVSGDSINSGDYYWIWIRQPPGKGLEWIGNIYYSGTAYYNPSLKTRLIISIDTSTNQFSLKVTSVTAADTAIYYCARASTTVVSPWLDPWGQGTLVTVSS
VL: SYELTQPSSVAVAPGQTARIPCGGDNIESKGVHWYQQKPGQAPVLVVYDDHDRPSGIPERFSGSNSGNTATLTVSRVEAGDEADYYCQVWDTSSEHPVFGGGTKLTVL
In experiment [1], B1 gave a Kd of 7.44 ± 0.36 nM.

B2: human monoclonal antibody 053054 (full-length IgG1) (antibody, V domains shown)
VH: B1 VH
VL: B1 VL
In experiment [2], B2 registered an IC50 of 4.88 ± 1.06 nM.

B3: 092096 single-chain variable fragment (scFv, V domains shown)
VH: QVQLVQSGAEVKKPGASVKVSCKVSGYTLTELSMHWVRQAPGKGLEWMGGFDREDGESIYAQKFQGRVTLTEDTSTDSVYMELSNLRSDDTAVYFCATDFGGSYFYAFDIWGQGTMVTVSS
VL: not shown
Consider B3, for which the Kd in experiment [1] came to 7.63 ± 0.29 nM.

B4: human monoclonal antibody 092096 (full-length IgG1) (antibody, V domains shown)
VH: B3 VH
VL: not shown
B4 came in with an IC50 in experiment [2] of 1.63 ± 1.07 nM.
